According to paper PMC9482650, “Quantitative fragmentomics allow affinity mapping of interactomes” (Nature Communications, 2022):

T1: RHPN1, Q8TCX5
T1 sequence (Q8TCX5 508-602, limits assumed, looked up): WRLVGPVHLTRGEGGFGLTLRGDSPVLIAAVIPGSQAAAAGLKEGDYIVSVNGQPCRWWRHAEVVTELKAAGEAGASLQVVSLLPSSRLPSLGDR

T2: LNX2_2, Q8N448
T2 sequence (Q8N448 334-432, limits assumed, looked up): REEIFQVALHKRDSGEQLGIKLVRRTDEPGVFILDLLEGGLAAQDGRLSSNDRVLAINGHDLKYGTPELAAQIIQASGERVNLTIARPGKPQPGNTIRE

T3: DVL3, Q92997
T3 sequence (Q92997 244-331, limits assumed, looked up): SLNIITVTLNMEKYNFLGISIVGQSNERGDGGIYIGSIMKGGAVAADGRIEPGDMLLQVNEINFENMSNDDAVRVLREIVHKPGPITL

T4: GRIP1_5, Q9Y3R0
T4 sequence (Q9Y3R0 568-668, limits assumed, looked up): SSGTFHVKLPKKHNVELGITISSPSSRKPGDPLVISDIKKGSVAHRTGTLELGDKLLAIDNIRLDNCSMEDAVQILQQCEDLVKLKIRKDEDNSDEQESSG

T5: APBA2_1, Q99767
T5 sequence (Q99767 563-664, limits assumed, looked up): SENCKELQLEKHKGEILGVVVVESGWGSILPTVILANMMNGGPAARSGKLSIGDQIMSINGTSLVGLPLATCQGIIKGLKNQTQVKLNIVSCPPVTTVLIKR

T6: GRIP1_3, Q9Y3R0
T6 sequence (Q9Y3R0 247-346, limits assumed, looked up): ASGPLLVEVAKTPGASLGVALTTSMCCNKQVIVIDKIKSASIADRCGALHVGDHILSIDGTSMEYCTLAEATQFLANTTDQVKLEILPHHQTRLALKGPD

T7: HTRA4, P83105
T7 sequence (P83105 378-476, limits assumed, looked up): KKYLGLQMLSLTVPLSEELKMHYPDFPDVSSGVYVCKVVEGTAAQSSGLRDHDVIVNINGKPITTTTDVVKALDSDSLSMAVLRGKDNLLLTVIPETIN

T8: DLG3_1, Q92796
T8 sequence (Q92796 125-227, limits assumed, looked up): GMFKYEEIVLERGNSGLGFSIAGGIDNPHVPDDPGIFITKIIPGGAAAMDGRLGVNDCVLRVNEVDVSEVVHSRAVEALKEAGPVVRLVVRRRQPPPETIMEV

T9: ARHGEF11, O15085
T9 sequence (O15085 42-136, limits assumed, looked up): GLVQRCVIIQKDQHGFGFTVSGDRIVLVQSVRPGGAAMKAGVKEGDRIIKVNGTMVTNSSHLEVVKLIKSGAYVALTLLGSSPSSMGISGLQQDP

T10: SNTG1, Q9NSN8
T10 sequence (Q9NSN8 52-150, limits assumed, looked up): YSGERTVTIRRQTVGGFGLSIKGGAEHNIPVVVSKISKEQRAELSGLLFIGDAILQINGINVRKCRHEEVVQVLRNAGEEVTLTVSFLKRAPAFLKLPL

T11: NHERF3_1, Q5T2W1
T11 sequence (Q5T2W1 4-100, limits assumed, looked up): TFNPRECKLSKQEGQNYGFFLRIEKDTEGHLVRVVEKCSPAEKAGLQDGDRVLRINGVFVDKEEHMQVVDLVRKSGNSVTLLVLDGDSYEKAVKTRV

B1: ACVR2A, P27037 (peptide)
chain: VDFPPKESSL
B2: HPV73-E6, Q82005 (peptide)
chain: SGSRPSATVV

Target: T1, RHPN1, Q8TCX5
Assay: holdup assay
Set-up: key: below the threshold = too weak to quantify, mostly under pKd 3.1 to 4
Details: plain residues with an end cap or a label only (N-terminal biotin on a linker: ttds)

| Binder | pKd |
| --- | --- |
| B1 | 3.97 |
| B2 | below the threshold |

Target: Inadl_6, Q8NI35
Sequence (Q8NI35 1058-1167): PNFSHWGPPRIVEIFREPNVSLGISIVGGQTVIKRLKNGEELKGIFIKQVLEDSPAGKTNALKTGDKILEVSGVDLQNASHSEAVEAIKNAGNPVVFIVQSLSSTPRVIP
Assay: holdup assay
Set-up: key: below the threshold = too weak to quantify, mostly under pKd 3.1 to 4
Details: plain residues with an end cap or a label only (N-terminal biotin on a linker: ttds)

| Binder | pKd |
| --- | --- |
| B1 | below the threshold |
| B2 | below the threshold |

Target: T2, LNX2_2, Q8N448
Assay: holdup assay
Set-up: key: below the threshold = too weak to quantify, mostly under pKd 3.1 to 4
Details: plain residues with an end cap or a label only (N-terminal biotin on a linker: ttds)

| Binder | pKd |
| --- | --- |
| B1 | below the threshold |
| B2 | 4.98 |

Target: T3, DVL3, Q92997
Assay: holdup assay
Set-up: key: below the threshold = too weak to quantify, mostly under pKd 3.1 to 4
Details: plain residues with an end cap or a label only (N-terminal biotin on a linker: ttds)

| Binder | pKd |
| --- | --- |
| B1 | below the threshold |
| B2 | 3.5 |

Target: TJP2_1, Q9UDY2
Sequence (Q9UDY2 24-128): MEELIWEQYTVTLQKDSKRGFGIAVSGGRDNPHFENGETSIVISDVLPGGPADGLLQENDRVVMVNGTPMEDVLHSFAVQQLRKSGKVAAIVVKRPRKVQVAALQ
Assay: holdup assay
Set-up: key: below the threshold = too weak to quantify, mostly under pKd 3.1 to 4
Details: plain residues with an end cap or a label only (N-terminal biotin on a linker: ttds)

| Binder | pKd |
| --- | --- |
| B1 | below the threshold |
| B2 | 3.77 |

Target: T4, GRIP1_5, Q9Y3R0
Assay: holdup assay
Set-up: key: below the threshold = too weak to quantify, mostly under pKd 3.1 to 4
Details: plain residues with an end cap or a label only (N-terminal biotin on a linker: ttds)

| Binder | pKd |
| --- | --- |
| B1 | below the threshold |
| B2 | below the threshold |

Target: MAGI1_1, Q96QZ7
Sequence (Q96QZ7 1-106): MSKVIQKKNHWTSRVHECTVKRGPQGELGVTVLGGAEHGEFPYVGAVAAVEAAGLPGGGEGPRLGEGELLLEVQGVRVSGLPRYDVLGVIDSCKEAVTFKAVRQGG
Assay: holdup assay
Set-up: key: below the threshold = too weak to quantify, mostly under pKd 3.1 to 4
Details: plain residues with an end cap or a label only (N-terminal biotin on a linker: ttds)

| Binder | pKd |
| --- | --- |
| B1 | below the threshold |
| B2 | below the threshold |

Target: T5, APBA2_1, Q99767
Assay: holdup assay
Set-up: key: below the threshold = too weak to quantify, mostly under pKd 3.1 to 4
Details: plain residues with an end cap or a label only (N-terminal biotin on a linker: ttds)

| Binder | pKd |
| --- | --- |
| B1 | below the threshold |
| B2 | below the threshold |

Target: T6, GRIP1_3, Q9Y3R0
Assay: holdup assay
Set-up: key: below the threshold = too weak to quantify, mostly under pKd 3.1 to 4
Details: plain residues with an end cap or a label only (N-terminal biotin on a linker: ttds)

| Binder | pKd |
| --- | --- |
| B1 | below the threshold |
| B2 | below the threshold |

Target: Inadl_4, Q8NI35
Sequence (Q8NI35 547-651): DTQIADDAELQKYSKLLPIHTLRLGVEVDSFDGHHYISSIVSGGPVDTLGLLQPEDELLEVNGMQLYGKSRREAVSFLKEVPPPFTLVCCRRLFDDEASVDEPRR
Assay: holdup assay
Set-up: key: below the threshold = too weak to quantify, mostly under pKd 3.1 to 4
Details: plain residues with an end cap or a label only (N-terminal biotin on a linker: ttds)

| Binder | pKd |
| --- | --- |
| B1 | below the threshold |
| B2 | below the threshold |

Target: T7, HTRA4, P83105
Assay: holdup assay
Set-up: key: below the threshold = too weak to quantify, mostly under pKd 3.1 to 4
Details: plain residues with an end cap or a label only (N-terminal biotin on a linker: ttds)

| Binder | pKd |
| --- | --- |
| B1 | below the threshold |
| B2 | 3.86 |

Target: PDZRN4_1, Q6ZMN7
Sequence (Q6ZMN7 213-318): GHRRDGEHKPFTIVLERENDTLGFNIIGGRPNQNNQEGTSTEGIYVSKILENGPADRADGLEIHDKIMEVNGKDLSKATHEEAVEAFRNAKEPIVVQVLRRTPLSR
Assay: holdup assay
Set-up: key: below the threshold = too weak to quantify, mostly under pKd 3.1 to 4
Details: plain residues with an end cap or a label only (N-terminal biotin on a linker: ttds)

| Binder | pKd |
| --- | --- |
| B1 | 4.7 |
| B2 | below the threshold |

Target: FRMPD2_3, Q68DX3
Sequence (Q68DX3 1073-1166): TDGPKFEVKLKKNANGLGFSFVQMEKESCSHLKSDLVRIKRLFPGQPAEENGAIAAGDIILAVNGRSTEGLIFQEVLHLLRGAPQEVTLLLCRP
Assay: holdup assay
Set-up: key: below the threshold = too weak to quantify, mostly under pKd 3.1 to 4
Details: plain residues with an end cap or a label only (N-terminal biotin on a linker: ttds)

| Binder | pKd |
| --- | --- |
| B1 | below the threshold |
| B2 | below the threshold |

Target: LDB3, O75112
Sequence (O75112 1-94): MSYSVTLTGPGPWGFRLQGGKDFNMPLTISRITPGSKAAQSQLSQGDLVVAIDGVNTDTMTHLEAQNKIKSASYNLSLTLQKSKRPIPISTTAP
Assay: holdup assay
Set-up: key: below the threshold = too weak to quantify, mostly under pKd 3.1 to 4
Details: plain residues with an end cap or a label only (N-terminal biotin on a linker: ttds)

| Binder | pKd |
| --- | --- |
| B1 | below the threshold |
| B2 | below the threshold |

Target: T8, DLG3_1, Q92796
Assay: holdup assay
Set-up: key: below the threshold = too weak to quantify, mostly under pKd 3.1 to 4
Details: plain residues with an end cap or a label only (N-terminal biotin on a linker: ttds)

| Binder | pKd |
| --- | --- |
| B1 | below the threshold |
| B2 | below the threshold |

Target: T9, ARHGEF11, O15085
Assay: holdup assay
Set-up: key: below the threshold = too weak to quantify, mostly under pKd 3.1 to 4
Details: plain residues with an end cap or a label only (N-terminal biotin on a linker: ttds)

| Binder | pKd |
| --- | --- |
| B1 | 4.17 |
| B2 | 3.98 |

Target: MAGI2_4, Q86UL8
Sequence (Q86UL8 772-865): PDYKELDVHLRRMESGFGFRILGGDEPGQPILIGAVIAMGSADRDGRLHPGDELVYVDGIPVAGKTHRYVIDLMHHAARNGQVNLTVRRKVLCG
Assay: holdup assay
Set-up: key: below the threshold = too weak to quantify, mostly under pKd 3.1 to 4
Details: plain residues with an end cap or a label only (N-terminal biotin on a linker: ttds)

| Binder | pKd |
| --- | --- |
| B1 | below the threshold |
| B2 | 4.49 |

Target: DLG1_1, Q12959
Assay: holdup assay
Set-up: key: below the threshold = too weak to quantify, mostly under pKd 3.1 to 4
Details: plain residues with an end cap or a label only (N-terminal biotin on a linker: ttds)

| Binder | pKd |
| --- | --- |
| B1 | 3.71 |
| B2 | 3.89 |

Target: MAGI1_2, Q96QZ7
Sequence (Q96QZ7 456-580): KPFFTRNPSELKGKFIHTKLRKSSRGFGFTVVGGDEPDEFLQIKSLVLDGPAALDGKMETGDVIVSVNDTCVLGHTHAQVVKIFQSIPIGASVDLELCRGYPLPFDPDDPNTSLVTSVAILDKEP
Assay: holdup assay
Set-up: key: below the threshold = too weak to quantify, mostly under pKd 3.1 to 4
Details: plain residues with an end cap or a label only (N-terminal biotin on a linker: ttds)

| Binder | pKd |
| --- | --- |
| B1 | below the threshold |
| B2 | 4.15 |

Target: T10, SNTG1, Q9NSN8
Assay: holdup assay
Set-up: key: below the threshold = too weak to quantify, mostly under pKd 3.1 to 4
Details: plain residues with an end cap or a label only (N-terminal biotin on a linker: ttds)

| Binder | pKd |
| --- | --- |
| B1 | 3.65 |
| B2 | 3.6 |

Target: FRMPD4, Q14CM0
Sequence (Q14CM0 67-160): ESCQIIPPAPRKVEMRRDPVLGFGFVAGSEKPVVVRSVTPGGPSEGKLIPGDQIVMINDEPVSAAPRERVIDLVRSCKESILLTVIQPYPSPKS
Assay: holdup assay
Set-up: key: below the threshold = too weak to quantify, mostly under pKd 3.1 to 4
Details: plain residues with an end cap or a label only (N-terminal biotin on a linker: ttds)

| Binder | pKd |
| --- | --- |
| B1 | below the threshold |
| B2 | below the threshold |

Target: Inadl_2, Q8NI35
Sequence (Q8NI35 238-335): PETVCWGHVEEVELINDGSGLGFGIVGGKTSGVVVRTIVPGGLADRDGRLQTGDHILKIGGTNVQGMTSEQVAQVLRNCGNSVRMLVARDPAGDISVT
Assay: holdup assay
Set-up: key: below the threshold = too weak to quantify, mostly under pKd 3.1 to 4
Details: plain residues with an end cap or a label only (N-terminal biotin on a linker: ttds)

| Binder | pKd |
| --- | --- |
| B1 | below the threshold |
| B2 | below the threshold |

Target: Inadl_5, Q8NI35
Sequence (Q8NI35 673-780): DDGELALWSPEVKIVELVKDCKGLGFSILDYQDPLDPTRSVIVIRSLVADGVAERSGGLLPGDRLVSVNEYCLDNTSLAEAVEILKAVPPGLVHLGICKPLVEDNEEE
Assay: holdup assay
Set-up: key: below the threshold = too weak to quantify, mostly under pKd 3.1 to 4
Details: plain residues with an end cap or a label only (N-terminal biotin on a linker: ttds)

| Binder | pKd |
| --- | --- |
| B1 | below the threshold |
| B2 | below the threshold |

Target: MAGI2_6, Q86UL8
Sequence (Q86UL8 1141-1229): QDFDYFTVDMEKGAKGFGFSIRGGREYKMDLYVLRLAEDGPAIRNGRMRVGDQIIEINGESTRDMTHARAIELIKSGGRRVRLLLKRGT
Assay: holdup assay
Set-up: key: below the threshold = too weak to quantify, mostly under pKd 3.1 to 4
Details: plain residues with an end cap or a label only (N-terminal biotin on a linker: ttds)

| Binder | pKd |
| --- | --- |
| B1 | 3.69 |
| B2 | below the threshold |

Target: GRIP2_5, Q9C0E4
Sequence (Q9C0E4 544-642): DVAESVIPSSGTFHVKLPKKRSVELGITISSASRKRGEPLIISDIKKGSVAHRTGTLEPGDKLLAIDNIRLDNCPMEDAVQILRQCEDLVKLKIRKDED
Assay: holdup assay
Set-up: key: below the threshold = too weak to quantify, mostly under pKd 3.1 to 4
Details: plain residues with an end cap or a label only (N-terminal biotin on a linker: ttds)

| Binder | pKd |
| --- | --- |
| B1 | below the threshold |
| B2 | below the threshold |

Target: T11, NHERF3_1, Q5T2W1
Assay: holdup assay
Set-up: key: below the threshold = too weak to quantify, mostly under pKd 3.1 to 4
Details: plain residues with an end cap or a label only (N-terminal biotin on a linker: ttds)

| Binder | pKd |
| --- | --- |
| B1 | 4.22 |
| B2 | below the threshold |

Target: DLG4_1, P78352
Sequence (P78352 62-152): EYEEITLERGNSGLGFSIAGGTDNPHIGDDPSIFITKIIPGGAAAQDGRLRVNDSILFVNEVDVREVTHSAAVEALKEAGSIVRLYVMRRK
Assay: holdup assay
Set-up: key: below the threshold = too weak to quantify, mostly under pKd 3.1 to 4
Details: plain residues with an end cap or a label only (N-terminal biotin on a linker: ttds)

| Binder | pKd |
| --- | --- |
| B1 | below the threshold |
| B2 | 3.97 |
